According to publication PMC9177848:

Legend:
[1] = target: smBiT-β-arrestin (an N-terminal smBiT) (UniProt P32121); assay: NanoBiT β-arrestin recruitment assay; details: highest fenoldopam concentration shown, log[Fenoldopam] M about -4.3; parent: est. 2.7; read off a plot
[2] = target: LgBiT-mini-Gs fusion protein; assay: NanoBiT mini-Gαs recruitment assay; details: agonist fenoldopam; three independent experiments; parent: est. 7.2; read off a plot

Substance	response [1]	other: pEC50 [2]
D1R-LgBit (WT) (from UniProt P21728) K81V	1.2 fold change	
D1R-SmBiT fusion protein (WT) (from UniProt P21728) F289A		6.1
D1R-SmBiT fusion protein (WT) (from UniProt P21728) L190A		5
D1R-SmBiT fusion protein (WT) (from UniProt P21728) S202A		6.6
D1R-SmBiT fusion protein (WT) (from UniProt P21728) W321F		6.5

Other lines, results leading:

response [1]	other: pEC50 [2]	Substance
	6	D1R-SmBiT fusion protein (WT) (from UniProt P21728) F288A
	6	D1R-SmBiT fusion protein (WT) (from UniProt P21728) K81V
	5.4	D1R-SmBiT fusion protein (WT) (from UniProt P21728) N292L
	5.1	D1R-SmBiT fusion protein (WT) (from UniProt P21728) S198G
